Measurements from paper PMC3137068.
Like-named read-outs stand apart in the source and are kept apart here. Each block holds one molecule with its values, some of them ahead of it.

Legend:
[1] = biological target: oxidized nDsbD (N-terminal periplasmic globular domain of DsbD, wild type) (E. coli) (UniProt P36655); assay: SPR
[2] = biological target: Cys461 (UniProt position 480, LYADWCVACKE); assay: NMR; details: reduced cDsbD (Cys461 and Cys464 as free thiols), isolated from nDsbD; cited from earlier work
[3] = biological target: Asp455 (UniProt position 474, KPVMLDLYADW); details: isolated domain, cited from earlier work
[4] = biological target: oxidized D455N/E468Q-cDsbD (E. coli); assay: NMR titration
[5] = biological target: oxidized V462A-cDsbD (E. coli); assay: NMR titration
[6] = biological target: oxidized cDsbD (C-terminal periplasmic globular domain of DsbD, wild type) (E. coli); assay: NMR titration
Chain of oxidized cDsbD (C-terminal periplasmic globular domain of DsbD, wild type) (E. coli) (P36655 20-565): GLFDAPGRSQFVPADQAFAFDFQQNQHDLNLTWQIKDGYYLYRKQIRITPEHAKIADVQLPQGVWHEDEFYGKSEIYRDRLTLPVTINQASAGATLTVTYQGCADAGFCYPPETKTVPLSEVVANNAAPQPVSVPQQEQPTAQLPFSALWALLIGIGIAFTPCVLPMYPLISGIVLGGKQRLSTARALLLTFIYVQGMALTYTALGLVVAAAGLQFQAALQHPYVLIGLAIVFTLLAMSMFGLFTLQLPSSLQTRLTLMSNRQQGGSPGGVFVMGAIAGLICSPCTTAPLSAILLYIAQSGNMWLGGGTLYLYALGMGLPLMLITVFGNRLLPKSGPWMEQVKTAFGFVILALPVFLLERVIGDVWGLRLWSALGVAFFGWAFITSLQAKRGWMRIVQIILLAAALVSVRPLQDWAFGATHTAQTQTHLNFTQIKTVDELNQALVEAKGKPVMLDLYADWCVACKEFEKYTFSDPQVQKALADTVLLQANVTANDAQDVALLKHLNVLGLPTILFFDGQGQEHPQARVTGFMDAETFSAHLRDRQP

Molecule: Thiol:disulfide interchange protein DsbD, C-terminal periplasmic thioredoxin-like domain (cDsbD) (Escherichia coli)
- pKa [2]: 10.5
- pKa ([3]; oxidized cDsbD (Cys461-Cys464 disulfide)): 6.6
- pKa ([3]; reduced cDsbD (Cys461 and Cys464 as free thiols)): 5.9

B2: C109A-nDsbD (domain or fragment)
chain: LFDAPGRSQFVPADQAFAFDFQQNQHDLNLTWQIKDGYYLYRKQIRITPEHAKIADVQLPQGVWHEDEFYGKSEIYRDRLTLPVTINQASAGATLTVTYQGCADAGFAYPPETKTVPLSEVVANNAAPQPV
- Kd [6]: 2400 to 3500 µM

Now from value to molecule:

- Kd [1]: 86 µM
Molecule: C461A-cDsbD (domain or fragment)

- Kd [4]: 2000 µM
- fold weaker than with wild-type cDsbDox [5]: 5 to 10 fold
B1: oxidized nDsbD (N-terminal periplasmic globular domain of DsbD, wild type) (domain or fragment)
chain: LFDAPGRSQFVPADQAFAFDFQQNQHDLNLTWQIKDGYYLYRKQIRITPEHAKIADVQLPQGVWHEDEFYGKSEIYRDRLTLPVTINQASAGATLTVTYQGCADAGFCYPPETKTVPLSEVVANNAAPQPV
modifications: Cys103-Cys109 disulfide bond (oxidized state)
